{
  "source": "patent US20200405868A1",
  "about": "“GEL-FORMING POLYPEPTIDES” (priority 2018, published 2020)",
  "binders": {"B1": {"name": "SEQ ID NO:119, Pal-SSPHSY-NH2, gel-forming peptide (peptide)", "peptide": "Palmitoyl-SSPHSY-NH2", "SMILES": "CCCCCCCCCCCCCCCC(=O)N[C@@H](CO)C(=O)N[C@@H](CO)C(=O)N1CCC[C@H]1C(=O)N[C@@H](Cc1c[nH]cn1)C(=O)N[C@@H](CO)C(=O)N[C@@H](Cc1ccc(O)cc1)C(N)=O"}},
  "key": {"[1]": {"biological_target": "FITC-labled GnRH molecule (a peptide) (UniProt P01148)", "test": "Centricon filter release assay: FITC-GnRH that passed into the lower chamber with carrier at 1 mg/10 ml (control without carrier 72.50); a lower reading means more retention with the carrier"}, "[2]": {"biological_target": "FITC-labled GnRH molecule (a peptide) (UniProt P01148)", "test": "Centricon filter release assay: FITC-GnRH that passed into the lower chamber with carrier at 1 mg/100 ml (control without carrier 72.50)"}},
  "note": "The star is where a group is joined. Palmitoyl = CCCCCCCCCCCCCCCC(=O)*",
  "data": [
    {"binder": "B1", "values": [
      {"measurement": "Fluorescent Reading (average of duplicates)", "setting": "[1]", "value": 9},
      {"measurement": "Fluorescent Reading (average of duplicates)", "setting": "[2]", "value": 58.4}
    ]}
  ]
}
